{"source": "patent US7338932", "key": {"[1]": {"molecular_target": "T1, EA2 acceptor peptide (PTTDSTTPAPTTK)", "T1 chain": "PTTDSTTPAPTTK"}, "[2]": {"molecular_target": "T2, MUC2 acceptor peptide (PTTTPISTTTMVTPTPTPTC)", "T2 chain": "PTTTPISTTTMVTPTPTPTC"}, "[3]": {"molecular_target": "T3, MUC7 acceptor peptide (Ac-CPPTPSATTPAPPSSSAPPETTAA)", "T3 chain": "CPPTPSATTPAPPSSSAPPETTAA"}}, "data": [{"protein": "human recombinant GalNAc-T3 (enzyme source of Example 6) (protein) MERNMKNKNKMLDLMLEAVNNIKDAMPKMQIGAPVRQNIDAGERPCLQGYYTAAELKPVLDRPPQDSNAPGASGKAFKTTNLSVEEQKEKERGEAKHCFNAFASDRISLHRDLGPDTRPPECIEQKFKRCPPLPTTSVIIVFHNEAWSTLLRTVHSVLYSSPAILLKEIILVDDASVDEYLHDKLDEYVKQFSIVKIVRQRERKGLITARLLGATVATAETLTFLDAHCECFYGWLEPLLARIAENYTAVVSPDIASIDLNTFEFNKPSPYGSNHNRGNFDWSLSFGWESLPDHEKQRRKDETYPIKTPTFAGGLFSISKEYFEYIGSYDEEMEIWGGENIEMSFRVWQCGGQLEIMPCSVVGHVFRSKSPHSFPKGTQVIARNQVRLAEVWMDEYKEIFYRRNTDAAKIVKQKAFGDLSKRFEIKHRLQCKNFTWYLNNIYPEVYVPDLNPVISGYIKSVGQPLCLDVGENNQGGKPLIMYTCHGLGGNQYFEYSAQHEIRHNIQKELCLHAAQGLVQLKACTYKGHKTVVTGEQIWEIQKDQLLYNPFLKMCLSANGEHPSLVSCNPSDPLQKWILSQND", "values": [{"measurement": "galactosyltransferase activity with UDP-Gal", "setting": "[1]", "result": "EA2, 6.8 nmol/min/ml"}, {"measurement": "galactosyltransferase activity with UDP-Gal", "setting": "[2]", "result": "Muc2, 0 nmol/min/ml"}, {"measurement": "galactosyltransferase activity with UDP-Gal", "setting": "[3]", "result": "Muc7, 0.1 nmol/min/ml"}]}]}
